“Also recorded” adds a separate entry of the source.

Experiment [1] deals with pancreatic duct epithelial cells. In words: PNA-FITC lectin histochemistry of pancreas. The format is binding, rat. As for the experimental part: Paraffin sections of adult human pancreas, adult rat pancreas, embryonic rat pancreas, or cryosections of adult mouse pancreas were used. Alternatively, Time 0 duct or cultured duct preparations from 2 week old rat pancreas were examined, with or without paraformaldehyde fixation. PNA-FITC was used usually at 1:250 dilution in PBS or DMEM/HEPES medium and incubated for 1 hr to overnight at 4° C., then washed and mounted under VectaShield mounting medium containing DAPI. Cells stained without prior fixation were post-fixed before addition of mounting medium.

In experiment [2] the test system is T0 duct prep. Description: PNA-FITC FACS of dispersed duct cells. The class given is binding, rat. The settings on record: by FACS analysis. Here is the method: PNA-FITC was diluted 1:250 in sterile wash buffer (Ca++ Mg++-free PBS containing 1% FBS). Dispersed live cells (approx. 2×10^6 cells) were spun down and resuspended in 100 μl of lectin and incubated for 30-45 min at 4° C. Cells were then washed twice with sterile wash buffer, resuspended in 2 ml of Iscoveís modified DMEM containing 5% FBS, Pen/Strep, 1 mM glutamine, and held on ice until run on the FACSVantage. Standard FACS procedures were used.

B1: PNA: plant lectin that binds to galactosyl (β-1,3) N-acetyl galactosamine (protein, UniProt P02872 24-273, looked up)
Galactose-binding lectin: AETVSFNFNSFSEGNPAINFQGDVTVLSNGNIQLTNLNKVNSVGRVLYAMPVRIWSSATGNVASFLTSFSFEMKDIKDYDPADGIIFFIAPEDTQIPAGSIGGGTLGVSDTKGAGHFVGVEFDTYSNSEYNDPPTDHVGIDVNSVDSVKTVPWNSVSGAVVKVTVIYDSSTKTLSVAVTNDNGDITTIAQVVDLKAKLPERVKFGFSASGSLGGRQIHLIRSWSFTSTLITTTRRSIDNNEKKIMNMASA
B1: in experiment [1], the “labelling of the major pancreatic duct (common bile duct, CBD)” value is given as “does not mark”. Besides, the “labelling of blood vessels or stromal cells” value in experiment [1] (by immunohistochemistry) was “does not mark”. In addition, the “labelling of islet cells” value in experiment [1] (rat) is “did NOT label; also recorded: does NOT mark”. For the same molecule, the “labelling of duct epithelial cells” value in experiment [1] (rat pancreas) is “DID label; also recorded: marks the single layer of epithelial cells”. Also, the “PNA-positive fraction of T0 duct prep” value in experiment [2] is on record as 5-15%.
